Data taken from publication PMC6336717 (Frontiers in Immunology, 2018).

B2: factor H-related protein 1 (FHR-1), recombinant (natural protein, human, UniProt Q03591 19-330, looked up)
chain: EATFCDFPKINHGILYDEEKYKPFSQVPTGEVFYYSCEYNFVSPSKSFWTRITCTEEGWSPTPKCLRLCFFPFVENGHSESSGQTHLEGDTVQIICNTGYRLQNNENNISCVERGWSTPPKCRSTDTSCVNPPTVQNAHILSRQMSKYPSGERVRYECRSPYEMFGDEEVMCLNGNWTEPPQCKDSTGKCGPPPPIDNGDITSFPLSVYAPASSVEYQCQNLYQLEGNKRITCRNGQWSEPPKCLHPCVISREIMENYNIALRWTAKQKLYLRTGESAEFVCKRGYRLSSRSHTLRTTCWDGKLEYPTCAKR
notes: Complement factor H-related protein 1, human; secreted from CHO cells, so probably the mature protein

Experiments:
[1] = target: T1, FH_(19−20) (C-terminal part of factor H, SCR 19-20), recombinant (human, UniProt P08603 1103-1231); test: SPR; Biacore S200, CM5 chip, 25°C, HBST (10 mM HEPES, 150 mM NaCl, 0.005% Tween 20, pH 7.4); surfaces: 800 RU opsonized C3b, iC3b made from it, or 600 RU amine-coupled C3d; series of Sbi-III-IV WT or K173A (4,050 to 1.8 nM) flowed alone or co-injected with FH, FHR-1, FHR-2, FHR-5 or FH19-20 at 100, 12.5, 20, 25 or 20 nM; conditions: both partners purified
T1 construct: Complement factor H, human, SCR domains 19-20; also called fragment FH_(19−20); source: recombinant
T1 sequence: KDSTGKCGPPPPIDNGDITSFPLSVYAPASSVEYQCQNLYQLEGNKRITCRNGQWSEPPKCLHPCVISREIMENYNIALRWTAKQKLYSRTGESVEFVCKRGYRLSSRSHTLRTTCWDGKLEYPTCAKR

[2] = target: B2; test: as above; conditions: both partners purified
Factor H (FH) = target: T2, Factor H (FH) (human, UniProt P08603 19-1231); test: as above; conditions: both partners purified
T2 construct: Complement factor H, human, plasma purified; also called plasma purified FH; source: bought: Complement Technologies (plasma purified)

[3] = target: the molecule itself; test: SAXS; Sbi-III-IV, C3d and FHR-1 combined 1:1:1 at 45 uM, in PBS; EOM ensemble modelling with P2 symmetry

B1: Sbi-III-IV(K173A) (domain or fragment)
chain: not shown
notes: As used in SPR, ELISA and SAXS; also called K173A Sbi-III-IV; Sbi-III-IV mutant K173A; source: recombinant, from mutated pQE30:sbi-III-IV plasmid (QuikChange), purified
B1: binds [1]; binds [2]; binds (Factor H (FH)).

For B2, the “stoichiometry N” value [3] was 2.
